According to publication PMC10761944, “Modular assembly of an artificially concise biocatalytic cascade for the manufacture of phenethylisoquinoline alkaloids” (Nature Communications, 2024):

Columns and labels:
[1] = biological target: T1, TfNCS (Thalictrum flavum, UniProt C3SBV6); experiment: product by HPLC, coupled to TpCAR; format: biochemical; conditions: 1a formed in situ from 1 by TpCAR; co-substrate dopamine; HEPES pH 7.5, 30 °C
T1 construct: codon-optimised synthetic gene, E. coli BL21(DE3), Ni-NTA purified

[2] = biological target: T2, RnCOMT (Rattus norvegicus, UniProt P22734); experiment: conversion by HPLC; format: biochemical; conditions: 4 mM SAM, 10 mM MgCl2, HEPES pH 7.5, 30 °C, 2 h
T2 construct: gene Comt; codon-optimised synthetic gene, E. coli BL21(DE3), Ni-NTA purified
T2 sequence (P22734 1-264): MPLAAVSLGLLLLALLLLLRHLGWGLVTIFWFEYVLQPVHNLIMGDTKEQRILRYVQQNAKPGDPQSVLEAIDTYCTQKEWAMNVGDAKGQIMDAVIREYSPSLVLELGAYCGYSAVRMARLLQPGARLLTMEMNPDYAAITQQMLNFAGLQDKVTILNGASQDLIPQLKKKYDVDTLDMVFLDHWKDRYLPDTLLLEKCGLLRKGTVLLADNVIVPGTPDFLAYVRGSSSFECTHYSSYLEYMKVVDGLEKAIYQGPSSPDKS

[3] = biological target: T3, CNMT (Coptis japonica, UniProt Q948P7); experiment: product titer by HPLC, coupled to RnCOMT; format: biochemical; conditions: SAM; (S)-1c formed in situ from 2 mM (S)-1b; HEPES pH 7.5, 30 °C, 4 h
T3 construct: codon-optimised synthetic gene, E. coli BL21(DE3), Ni-NTA purified

[4] = system: COc1cc(CC[C@@H]2NCCc3cc(O)c(O)cc32)cc(O)c1OC; experiment: initial rates by HPLC, Michaelis-Menten fit; format: biochemical, Gloriosa superba; conditions: SAM as methyl donor, 200 mM potassium phosphate pH 7.5, 30 °C

| Compound | Km [4] | kcat [4] | also measured |
| --- | --- | --- | --- |
| COc1cc(CCC=O)cc(OC)c1OC [1a] |  |  | product by HPLC, coupled to TpCAR [1]: (S)−1b was efficiently synthesized without the accumulation of intermediate 1a |
| COc1cc(CC[C@@H]2NCCc3cc(O)c(O)cc32)cc(OC)c1OC [(S)-1b] |  |  | conversion by HPLC [2]: the enzymatic activity of RnCOMT towards (S)−1b was much better than that of GsOMT1 |
| COc1cc2c(cc1O)[C@H](CCc1cc(OC)c(OC)c(OC)c1)NCC2 [(S)-1c] |  |  | product titer by HPLC, coupled to RnCOMT [3]: CNMT showed a very weak catalytic activity towards (S)−1c |
| GsOMT1 (Gloriosa superba) | 630 ± 50 µM | 4.56 ± 0.24 s⁻¹ |  |
| GsOMT1 (Gloriosa superba; V125Q) | 330 ± 20 µM | 8.65 ± 0.26 s⁻¹ |  |
